Assay results reported in patent publication US20110189729.

Biological target: lambda integrase Int-h/218 h/218 mutant (substitutions not given) (Bacteriophage lambda) (UniProt P03700)
Test: cell_activity
Details: CHO-DG44

“CTGCTTTTTTATACTAAGTTGGCATTATAAAAAAGCATTGCTTATCAATTTGTTGCAACGAACAGGTCACTATCAGTCAAAATATAATCATTATTTGATTTC / GAAATCAAATAATGATTATATTTTGACTGATAGTGACCTGTTCGTTGCAACAAATTGATAAGCAATGCTTTTTTATAATGCCAACTTAGTATAAAAAAGCAG / GCTGTTACAGGTCACTAATACCATCTATGTAGTTGATTCATATTGTCTGCATATCTTGTGTTTTACAGTATTATCTAGTCTGTTTTTTATCCAAAATCTAATTTATTATATTGATATTTATATCATTTTACGTTTCTCGTTCAGCTTTTTTATACTAACTTG / CAAGTTAGTATAAAAAAGCTGAACGAGAAACGTAAAATGATATAAATATCAATATAATAAATTAGATTTTGGATAAAAAACAGACTAGATAATACTGTAAAACACAAGATATGCAGACAATATGAATCAACTACATAGATGGTATTAGTGACCTGTAACAGC [attL.a ; attR.a]” was tested, and the activity (% fluorescent cells) (attL.a x attR.a, with IHF and XIS, PCR verified) was 2.3.

In the case of “GCTGTTACAGGTCACTAATACCATCTATGTAGTTGATTCATATTGTCTGCATATCTTGTGTTTTACAGTATTATCTAGTCTGTTTTTTATCCAAAATCTAATTTATTATATTGATATTTATATCATTTTACGTTTCTCGTTCAGCTTTTTTATACTAAGTTGGCATTATAAAAAAGCATTGCTTATCAATTTGTTGCAACGAACAGGTCACTATCAGTCAAAATATAATCATTATTTGATTTC / GAAATCAAATAATGATTATATTTTGACTGATAGTGACCTGTTCGTTGCAACAAATTGATAAGCAATGCTTTTTTATAATGCCAACTTAGTATAAAAAAGCTGAACGAGAAACGTAAAATGATATAAATATCAATATAATAAATTAGATTTTGGATAAAAAACAGACTAGATAATACTGTAAAACACAAGATATGCAGACAATATGAATCAACTACATAGATGGTATTAGTGACCTGTAACAGC / GCTGTTACAGGTCACTAATACCATCTATGTAGTTGATTCATATTGTCTGCATATCTTGTGTTTTACAGTATTATCTAGTCTGTTTTTTATCCAAAATCTAATTTATTATATTGATATTTATATCATTTTACGTTTCTCGTTCAGCTTTTTTATACTAAGTTGGCATTATAAAAAAGCATTGCTTATCAATTTGTTGCAACGAACAGGTCACTATCAGTCAAAATATAATCATTATTTGATTTC / GAAATCAAATAATGATTATATTTTGACTGATAGTGACCTGTTCGTTGCAACAAATTGATAAGCAATGCTTTTTTATAATGCCAACTTAGTATAAAAAAGCTGAACGAGAAACGTAAAATGATATAAATATCAATATAATAAATTAGATTTTGGATAAAAAACAGACTAGATAATACTGTAAAACACAAGATATGCAGACAATATGAATCAACTACATAGATGGTATTAGTGACCTGTAACAGC [attP.a ; attP.a]”, the activity (% fluorescent cells) (attP.a x attP.a, no IHF plasmid) is reported as 1.9.

Sequence “CTGCTTTTTTATACTAAGTTGGCATTATAAAAAAGCATTGCTTATCAATTTGTTGCAACGAACAGGTCACTATCAGTCAAAATATAATCATTATTTGATTTC / GAAATCAAATAATGATTATATTTTGACTGATAGTGACCTGTTCGTTGCAACAAATTGATAAGCAATGCTTTTTTATAATGCCAACTTAGTATAAAAAAGCAG / GCTGTTACAGGTCACTAATACCATCTACGTAGTTGATTCATATTGTCTGCATATCTTGTGTTTTACAGTATTATCTAGTCTGTTTTTTATCCAAAATCTAATTTATTATATTGATATTTATATCATTTTACGTTTCTCGTTCAGCTTTTTTATACTAACTTG / CAAGTTAGTATAAAAAAGCTGAACGAGAAACGTAAAATGATATAAATATCAATATAATAAATTAGATTTTGGATAAAAAACAGACTAGATAATACTGTAAAACACAAGATATGCAGACAATATGAATCAACTACGTAGATGGTATTAGTGACCTGTAACAGC [attL.a ; attR.b]” has an activity (% fluorescent cells) (attL.a x attR.b, with IHF and XIS, PCR verified) of 1.2.

Sequence “GCTGTTACAGGTCACTAATACCATCTACGTAGTTGATTCATATTGTCTGCATATCTTGTGTTTTACAGTATTATCTAGTCTGTTTTTTATCCAAAATCTAATTTATTATATTGATATTTATATCATTTTACGTTTCTCGTTCAGCTTTTTTATACTAAGTTGGCATTATAAAAAAGCATTGCTTATCAATTTGTTGCAACGAACAGGTCACTATCAGTCAAAATATAATCATTATTTGATTTC / GAAATCAAATAATGATTATATTTTGACTGATAGTGACCTGTTCGTTGCAACAAATTGATAAGCAATGCTTTTTTATAATGCCAACTTAGTATAAAAAAGCTGAACGAGAAACGTAAAATGATATAAATATCAATATAATAAATTAGATTTTGGATAAAAAACAGACTAGATAATACTGTAAAACACAAGATATGCAGACAATATGAATCAACTACGTAGATGGTATTAGTGACCTGTAACAGC / CTGCTTTTTTATACTAACTTG / CAAGTTAGTATAAAAAAGCAG [attP.b ; attB]” has an activity (% fluorescent cells) (attP.b x attB, with IHF, 0.3% without IHF plasmid) of 1.2.

Work on “CTGCTTTTTTATACTAAGTTGGCATTATAAAAAAGCATTGCTTATCAATTTGTTGCAACGAACAGGTCACTATCAGTCAAAATAAAATCATTATTTGATTTC / GAAATCAAATAATGATTTTATTTTGACTGATAGTGACCTGTTCGTTGCAACAAATTGATAAGCAATGCTTTTTTATAATGCCAACTTAGTATAAAAAAGCAG / TCTGTTACAGGTCACTAATACCATCTAAGTAGTTGATTCATAGTGACTGCATATGTTGTGTTTTACAGTATTATGTAGTCTGTTTTTTATGCAAAATCTAATTTAATATATTGATATTTATATCATTTTACGTTTCTCGTTCAGCTTTTTTATACTAACTTG / CAAGTTAGTATAAAAAAGCTGAACGAGAAACGTAAAATGATATAAATATCAATATATTAAATTAGATTTTGCATAAAAAACAGACTACATAATACTGTAAAACACAACATATGCAGTCACTATGAATCAACTACTTAGATGGTATTAGTGACCTGTAACAGA [attL ; attR]” yielded an activity (% fluorescent cells) (attL x attR, with IHF and XIS, PCR verified) of 3.2.

Work on “TCTGTTACAGGTCACTAATACCATCTAAGTAGTTGATTCATAGTGACTGCATATGTTGTGTTTTACAGTATTATGTAGTCTGTTTTTTATGCAAAATCTAATTTAATATATTGATATTTATATCATTTTACGTTTCTCGTTCAGCTTTTTTATACTAAGTTGGCATTATAAAAAAGCATTGCTTATCAATTTGTTGCAACGAACAGGTCACTATCAGTCAAAATAAAATCATTATTTGATTTC / GAAATCAAATAATGATTTTATTTTGACTGATAGTGACCTGTTCGTTGCAACAAATTGATAAGCAATGCTTTTTTATAATGCCAACTTAGTATAAAAAAGCTGAACGAGAAACGTAAAATGATATAAATATCAATATATTAAATTAGATTTTGCATAAAAAACAGACTACATAATACTGTAAAACACAACATATGCAGTCACTATGAATCAACTACTTAGATGGTATTAGTGACCTGTAACAGA / TCTGTTACAGGTCACTAATACCATCTAAGTAGTTGATTCATAGTGACTGCATATGTTGTGTTTTACAGTATTATGTAGTCTGTTTTTTATGCAAAATCTAATTTAATATATTGATATTTATATCATTTTACGTTTCTCGTTCAGCTTTTTTATACTAAGTTGGCATTATAAAAAAGCATTGCTTATCAATTTGTTGCAACGAACAGGTCACTATCAGTCAAAATAAAATCATTATTTGATTTC / GAAATCAAATAATGATTTTATTTTGACTGATAGTGACCTGTTCGTTGCAACAAATTGATAAGCAATGCTTTTTTATAATGCCAACTTAGTATAAAAAAGCTGAACGAGAAACGTAAAATGATATAAATATCAATATATTAAATTAGATTTTGCATAAAAAACAGACTACATAATACTGTAAAACACAACATATGCAGTCACTATGAATCAACTACTTAGATGGTATTAGTGACCTGTAACAGA [attP ; attP]” yielded an activity (% fluorescent cells) (attP x attP, no IHF plasmid) of 1.9.
